From PMC3923297, “Structural basis for microtubule recognition by the human kinetochore Ska complex” (Nature Communications, 2014)
Values joined by “and” are separate entries in the source; they are usually repeats but may differ in a detail not shown here. Equal entries are not always repeated.

Tests used:
[1] = target: T1, microtubules polymerised from tubulin (α1B and β2B tubulin) (UniProt P81947 1-451; Q6B856 1-445); experiment: co-sedimentation; MT-pelleting assay: taxol-stabilized MTs or subtilisin-treated MTs (0-12 μM tubulin dimer) with 1 or 3 μM protein, 10 min at room temperature, BRB80 (80 mM PIPES pH 6.9, 1 mM EGTA, 1 mM MgCl2) with 100 mM NaCl, 4 mM DTT, 20 μM taxol; spun through a glycerol cushion, 25 °C; SDS-PAGE, Coomassie, ImageJ. Kd: 1 μM Ska and 0-12 μM MTs; single points: 3 μM Ska (or 1 μM) and 6 μM MTs; details: both partners purified
T1 construct: α-tubulin, printed as α1B tubulin; β-tubulin, printed as β2B tubulin; Polymer of α/β-tubulin dimers; The same tubulin stood as taxol-stabilized (straight) MTs and as vinblastine spirals (curved); the assay tells them apart; brain tubulin is a mix of isotypes; also called MTs; taxol-stabilized MTs; source: bought: Cytoskeleton Inc. (tubulin), polymerised; taxol-stabilized MTs or vinblastine spirals

[2] = target: microtubules polymerised from tubulin (α1B and β2B tubulin), P81947;Q6B856; experiment: MT cosedimentation assay; details: 3 μM Ska and 6 μM vinblastine spirals; parent: est. 0.60; read off a plot

T1 sequence (P81947 whole entry, chain 1 of 2): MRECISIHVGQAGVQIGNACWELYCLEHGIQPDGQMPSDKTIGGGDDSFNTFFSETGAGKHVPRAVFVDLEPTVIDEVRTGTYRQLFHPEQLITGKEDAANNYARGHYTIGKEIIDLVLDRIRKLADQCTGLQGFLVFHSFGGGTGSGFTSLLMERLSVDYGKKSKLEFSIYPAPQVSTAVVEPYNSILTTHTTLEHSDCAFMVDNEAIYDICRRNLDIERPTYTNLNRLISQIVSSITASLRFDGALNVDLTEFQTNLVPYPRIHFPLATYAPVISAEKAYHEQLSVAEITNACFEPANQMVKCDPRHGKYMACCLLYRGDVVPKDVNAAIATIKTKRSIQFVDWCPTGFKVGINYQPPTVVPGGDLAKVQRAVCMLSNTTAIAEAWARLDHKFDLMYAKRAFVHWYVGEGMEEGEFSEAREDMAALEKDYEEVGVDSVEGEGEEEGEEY
T1 sequence (Q6B856 whole entry, chain 2 of 2): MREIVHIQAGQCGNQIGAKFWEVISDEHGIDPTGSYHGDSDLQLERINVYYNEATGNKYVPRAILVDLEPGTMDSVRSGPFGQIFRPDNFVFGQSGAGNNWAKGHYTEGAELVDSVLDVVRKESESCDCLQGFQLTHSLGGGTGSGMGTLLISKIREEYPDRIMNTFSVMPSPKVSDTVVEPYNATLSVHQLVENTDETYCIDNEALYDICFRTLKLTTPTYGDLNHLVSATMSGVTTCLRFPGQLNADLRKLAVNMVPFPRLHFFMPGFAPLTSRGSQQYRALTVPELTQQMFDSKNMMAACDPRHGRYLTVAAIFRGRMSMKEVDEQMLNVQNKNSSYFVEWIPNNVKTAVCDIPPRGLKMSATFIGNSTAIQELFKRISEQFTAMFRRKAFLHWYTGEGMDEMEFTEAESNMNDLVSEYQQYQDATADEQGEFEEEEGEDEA

B1: human Ska complex (Ska1, Ska2, Ska3), wild type, full length (complex)
chain 1: MASSDLEQLCSHVNEKIGNIKKTLSLRNCGQEPTLKTVLNKIGDEIIVINELLNKLELEIQYQEQTNNSLKELCESLEEDYKDIEHLKENVPSHLPQVTVTQSCVKGSDLDPEEPIKVEEPEPVKKPPKEQRSIKEMPFITCDEFNGVPSYMKSRLTYNQINDVIKEINKAVISKYKILHQPKKSMNSVTRNLYHRFIDEETKDTKGRYFIVEADIKEFTTLKADKKFHVLLNILRHCRRLSEVRGGGLTRYVIT
chain 2: MEAEVDKLELMFQKAESDLDYIQYRLEYEIKTNHPDSASEKNPVTLLKELSVIKSRYQTLYARFKPVAVEQKESKSRICATVKKTMNMIQKLQKQTDLELSPLTKEEKTAAEQFKFHMPDL
chain 3: MDPIRSFCGKLRSLASTLDCETARLQRALDGEESDFEDYPMRILYDLHSEVQTLKDDINILLDKARLENQEGIDFIKATKVLMEKNSMDIMKIREYFQKYGYSPRVKKNSVHEQEAINSDPELSNCENFQKTDVKDDLSDPPVASSCISEKSPRSPQLSDFGLERYIVSQVLPNPPQAVNNYKEEPVIVTPPTKQSLVKVLKTPKCALKMDDFECVTPKLEHFGISEYTMCLNEDYTMGLKNARNNKSEEAIDTESRLNDNVFATPSPIIQQLEKSDAEYTNSPLVPTFCTPGLKIPSTKNSIALVSTNYPLSKTNSSSNDLEVEDRTSLVLNSDTCFENLTDPSSPTISSYENLLRTPTPPEVTKIPEDILQLLSKYNSNLATPIAIKAVPPSKRFLKHGQNIRDVSNKEN
notes: Ska1, human; Ska2, human; Ska3, human, V58I as cloned; Ska3 V58I is printed without explanation; TEV-cleavable tags removed in solution; also called WT Ska complex; FL Ska complex; source: E. coli BL21 Gold, co-expressed, purified (glutathione sepharose, size-exclusion chromatography); copies: 2 + 2 + 2
[1]
  Kd: 2.9 ± 0.6 µM
[2]
  response (bound fraction): 0.63 and 0.21 and 0.31
